The target of this assay is Lucilia sericata larval excretions/secretions (ES), Batch B: proteinase activities within ES. Put plainly: cell-based or functional assay.

One substance from US20110280858A1 can be followed below.

The substance “soybean trypsin inhibitor (STI) immobilized on cross-linked 4% beaded agarose (from UniProt P01070 25-205)” returned a residual activity of STI-treated ES against H-Leu-AMC without further inhibitor (FIG. 10A), compared with untreated ES (percent of untreated ES) of 25.7; a residual activity of STI-treated ES against H-Leu-AMC, percentage of untreated ES (percent of untreated ES) of 28.4; a residual activity of STI-treated ES against Tosyl-Gly-Pro-Arg-AMC-HCl, percentage of untreated ES (percent of untreated ES) of 0.5; a residual activity of STI-treated ES against Z-Phe-Arg-AMC-HCl, percentage of untreated ES (percent of untreated ES) of 1.8.
